Test results as given in the nanobody polyreactivity screen of Harvey et al. (2022).

Assay: yeast display, Sf9 membrane polyspecificity reagent, FACS + sequencing; frameworks hold sequencing errors
How it was run: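 Nanobodies from a synthetic yeast display library (Saccharomyces cerevisiae BJ5465), induced 36–48 hours with galactose, were stained 1 hour at 4 °C with 10% biotinylated, detergent-solubilized Sf9 membrane reagent, enriched on streptavidin microbeads, then FACS-sorted. Anti-HA (expression) and streptavidin (reagent binding) fluorescence set low and high (top ~1%) gates. Polyreactivity labels come from the gate of origin. Genes were colony-PCR amplified, MiSeq 2 × 250 sequenced and filtered by CDR length.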

Sequence | polyreactivity (PSR sort gate)
QVKLVESGRALVQAGCSLPLSCAASGRIFTRYAMGWYRQAPGKERELVAAISYGGGGTYYADSVKGSFTISRDNAKNTVYVQMNSLKPEDTAVYYCATDDPLSQINEQGMDYWGQGTQVTVSS | low polyreactivity
QVKLVESGRGLVQAGCSLRITCAASGGTLDNNAMGRYRQAPGKERELVAAISSSGSRTYYADSVKGRFTISRDHAKNSVYLQMNSLKPEDTAVYYCAARRYVRRYYWGQGTQVTVSS | high polyreactivity
QVKLVETGGGLVQAGGSLRLSCAASGITFAYYAMGWYRQAPGKERELVARISRRGGSTYYADSVKGRFTISRDNAKNNVYLQMNSLKPEDTAVYYCAARVVVPKPYVDGDYWGEGTQVTVSS | high polyreactivity
QVLLEESVGGLDQAGGSLRLSCAASGFNFQTNAMGRYRQAPGKEREFVAAISDSGGSTNYADSVKGRFTISRDNAKNTGYLQMNSLKPEDSAVYYCATSFAVYDYDYWGQGTQVTVSS | low polyreactivity
QVLLLESGGGVVQAGGSHRLRCAASGRIFCTNTMGWYRQAPGKERELVAVISSSGDSTYYADSVKGRFTISRDNAKNTVYLQINSLKPEDTAVYYCAKGNNWISRLMDYWGQGTQVTVSS | low polyreactivity
QVLLQESGGGLVQAGGSLRLCCSASGYISGDQFMGWYRQAPGKEREFVAGIGNGTNTNYADSVKGRFTTSRDNEKNTVYLQMNIRKPEDTAVYYCAADPSDGSTLAYWGQGTQVTVSS | high polyreactivity
QVLLQESGGLVQAGCSLRMSCAASGSISTALSMGWYRQAPGKERELVATISDGASTNYADSVKGRFTISRVNAKNTVYLQMNSLKPEDTEVYYCAAQSQYRPDHRYWGQGTQVTVSS | high polyreactivity
QVLLVESGGGLFQAGGRLRVSCAASGSTLLRYAMGWYRQAPGKERELVAAISGTGSRTYYADSVKGRFTISRDNAKNTVYLKMISLNPEDTAVYYCYACPYRLTEIDYWGQGTPVTVSS | high polyreactivity
QVLLVESGGGLVQAAGSLRLSSAASGRIFASYPLGWYRQAPGKERELVAAISKSGGRTYYADSVKGRFTISRDNAKNTVYVQMNSLKPVDTAVYDCAAFFWTRSGTPNFDYWGQGTQVTVSS | high polyreactivity
QVLLVESGGGLVQAGGSLRLSCAASGFIFDVYAMGWYRQAPGKERELVAAISSSGGRKYYADSVKGRFTISRDNAKNTVYLQMNSLKPEDTAVYYCAAKTHSRTKVYTADYWGQGTQVTVSS | high polyreactivity
QVLLVESGGGLVQAGGSLRLSCAASGITFAYYVMGWYRQAPGKERELVAAINWSGGSTYYADSVKGRFTISRDNAKNTVYLQMNSLKPEDPAVYYCAADWSTWYGEKFYWGQGTQVTVSS | high polyreactivity
QVLLVESGGGLVQAGGSLRLSCAASGRILYHYAMGWYRQAPGKERELVAAITRGGGTNYADSVKGRFTISRDNAKNTVYLQMNSLKPEDTAVYYCNADRFIVTRSRRGDYWGQGTQVTVSS | low polyreactivity
QVLLVESGGGLVQAGGSLRLSCAASGRTFGTNGMGWYRQAPGKERELVAVITWTGGSTYYADSVKGRFTITRDNEKNTVYLQMNSLKPEDTAVYYCAAKYSHLGYNYWGQGTQVTVSS | high polyreactivity
QVLLVESGGGLVQAGGSLRLSCAASGSILRTYAMGWYRQAPGKERELVAAITWSGGSTRYADSVKGRFTISRDNAKNTVYLQMNSLKPEDTAVYYCNARYRVYSYALYKYGYWGQGTQVTVSS | high polyreactivity
QVLLVESGGGLVQAGGSLRLSCAASGSTFYYYGMGWYRQAPGKEREFVAAISWGGGSTRYADSVKGRITISRDNAKNTVYLQMNSLKPEDTAVYYCAARYPHYDYYYWGQGTQVTVSS | high polyreactivity
QVLLVESGGGLVQAGGSLRLSCAASGYIFNRYVMGWTIQAPGKERELVAAIYIRGGSTFYSDSVKGCFTISRDNAKYTVYLQMNSLKPDDSAVYYCDDGRYGDYGYWGQGTQLTVSS | high polyreactivity
QVLLVESGGGLVQAGGSLRLSCSASGITFEYYAMGWYRQAPGKERELVADIDTGGSTNYADSVKGRFTISRDNAKNTVYLQMNSLKPEDTAVYYCAADWSWWDAEDYHFEYDYWGQGTQVTVSS | low polyreactivity
QVLLVESGGGLVQAGGSLRLSGAASGSTFYNYAMGWNRQAPGKERELVASISDDGSTNYADSVKGRFTISRDNAKNTVYLQMNSLKQVDSAVYSCAAVWWLQFGSAWYQMGYWGQGTQVTVSS | low polyreactivity
QVNLVDSGGRLVQAGGSLRLSCAASGRIFYRYAMGWYIQAPGKERELVAAISRRGGSTYYADSVKGRFTISRDNAKNTVYLQMNSLNPEDTAVYYCNVYRSAFSYDSWGQCTQVTVSS | high polyreactivity
QVPLQESGGGLVQAGGSLRLSCAASGTISYAPHMGWYRQAPGKERELVAGITIGGTTYYADSVKGRFTISRDNAKNTVYLQMNSLSPGDTAVYYCAAHSEQYTPFYYWGQGTQVTVSS | low polyreactivity
QVPLVESGGGLVQAGGILRLSSAASGFIFTYYAMGWYRQAPGKERELVAAISASGGSTYYADSVKGRFTISRDYAKNTVYIQLYSLEPEDSSVYYCNKLYQQRAWETFSWGGYWGQGTQVTVSS | high polyreactivity

Sequence | polyreactivity (PSR sort gate)
QVPLVESGGGLVQAGGRLRLSCAASGSTLLNSPMGWYRKAPGKERELVAAISSSGGRTYYPDSVKGRFTISRDNAKNTVYLQMNSLTPEDTEVYYCNKVLGYPKTFGYWGQGTQVSVSS | high polyreactivity
QVPLVESGGGLVQAGGSLRLSCAASGFTFGWYAMGWYRQAPGKERELVAAISSNGGRTSYADSVKGRFTISRDNAKNTVYLQMNSLKPEDTAVYYCNADDRYIWTYWGWTIYDYWGQGTQVTVSS | high polyreactivity
QVPLVESGGGLVQAGGSLRLSCAASGRIFIQNTMGWDSQAPGKERELVAAINRSAGSTYYADSVKGRFTISRDNAKNTVYLQMNSLKTEDTAVYYCAAYASRRYGYWGQVTQVTVSS | high polyreactivity
QVPLVESGGGLVQAGGSLRLSCAASGRIFYNYAMGWYRQAPGKERELVAAISGSGGSTYYADSVKGRFTISRDNAKNTVYLQMNSLKPEDSSVYYCSTSGPQYYSRNFDYWGQGTQVTVSS | low polyreactivity
QVPLVESGGGLVQAGGSLRLSCAASGRLFGYNTMGWYRQAPGKERELVARISYDVDSTYYADSVKGRFTISRDNAKNTVYLQMNSLKPEDTAVYYCNARRSNLGSYIEYFGFDYWGQGTQVTVSS | low polyreactivity
QVPLVESGGGLVQAGGSLRLSCAASGRNYFKYAMGWYRQAPGKERELVATITWRGSSTYYSDSVKGRFTISRDNAKNTVFLQMNSLKPEDTAVYYCAARYLYTDEYWDKFYYWGQGTQVTVSS | high polyreactivity
QVPLVESGGGLVQAGGSLRLSCAASGRTFPSNMGWYRQAPGKERELVAAISWRGGSTNYADSVKGRFTISRDNAKNTVYLQMNSLKPEDTAVYYCNARYNTQRYRFLVQGDYWGQGTQVTVSS | high polyreactivity
QVPLVESGGGLVQAGGSLRLSCAASGSIFGQYAMGWYRQAPGKERELVAAIRDGTGSTYYAVSVKGRFTISRDNAKNTVYVQMNSLKPEDRAVYYCAADYIWTSIVHYEYWGQGTEVTVSS | high polyreactivity
QVPLVESGGGLVQAGGSLRLSCAASGSIFLLYDMGWYRQAPGKERELVAAITWSGGSTYYADSVKGRFTISRDNAMNSVYLQMNSLKPEDTAVYYCAADEPYPTAYEYWGQGTQVTVSS | low polyreactivity
QVPLVESGGRLVQAGGSLRLSCAASGSTIGPYTMGWYRQAPGKERELVATISSGGSTYSADSVKGRFTISRDNEKNTVYLQMISLKPEDTAVYYCAARYRSIYDYWGQGTQVTVSS | low polyreactivity
QVPLVESGVGLVHAGGSLRISCATSGITFAYYFMGWYRQAPGKERELVAAISWTGSSTYYADSVKWRFTISRDNAKNTVYLQMNSLKQEDTAVYYCAARQRYLYDYWGQGTQVNVSS | high polyreactivity
QVPLVESGVGLVQAGGSLRISCAASGFTFSRYAMGWYRQAPGKERELVAAISRTGGRTYYADSVKGRFTITRDNAKNTVYLQMNSLKPEDTADYYCARVPVHSHLRQTYAMEYWGQGTQVTVSS | high polyreactivity
QVPLVESVGGLVQAGGSLRISCAASGSTLRGYAMGWYRKAPGKERELVAAISWRGGSTYYADSVKGRFTISRDNAKNTVYLQMNSLKPEDTAVYYCNALVAGHKYYTVTSKYDYWGQGTQLTVSS | high polyreactivity
QVQDVESGGGLVQAGGSLRLSCAAYGFIFYSYAMGWYRQAPGKERELVAAISTGDGSTTFADSVKGRFTISRDNAKNSVYLQMNSLKPEDTAVYYCNVKYRACYRTDFEYWGQGTQVTVSS | low polyreactivity
QVQFVESGGGLVQAGGSLRLSCAASGSIFYRYTMGSYRQAPGKERELVAAISSRGGSTYYADSVKGRFTISRDNAKNTVYLQMNSLKPEDTAVYYCAARYFRNPVFVIMDYWGQGTQVTVSS | high polyreactivity
QVQFVESGGGLVQAGGSLRLSCAASGSTFPYYAMGWYRQAPGKERELVAGINWRGSSTYYADSVKGRFTISRDNAKNTVYLQMNSLKPEDTAVYYCAARDYSYPQWYYYWGQGTQVTVSS | high polyreactivity
QVQFVESGGGLVQARCSLRLSCAASGFIFGVYAMGWYRQAPGKERELVAAINSGGGSTYYADSVKGRFTISRDNAKNTVYLQMNSLKPEDTAVYYCAVRYKSWYGFNYWGQGTQVTVSS | high polyreactivity
QVQHAESGGGLVQAGGSLRLSCAASGSTSAKNVMGWYRQAPGKVRELVAAISRSGGRTYYADSVKGRFTISRDNAKNTVYLQMNSLNPEDTAVYYCAARSATNHADDYYYWGQGTQVTVSS | high polyreactivity
QVQHEESGGGLVQAGGSLRLSCAASGFTFGTNAMGWSRQAPGKERELVAAISTRGGSTYYADSVKGRFTISRDNAKNTVYLQMNSLKPEDTAVYYCAAYWGRTRYYGYDYYYWGQGTQVTVSS | high polyreactivity
QVQHVDSGGGLVQAGGSLRLSCAASGIYVVYAMGWYRQAPGKERELVAAISSGVSTTYADSVKGRFTISRDNAKNTVYLQMNSLKPEDTAVYYCNTLWGHHYIVPYRTREFYYWGQGTQVTVSS | low polyreactivity
